Test results reported in patent US9617326B2, “RTRAIL mutant and monomethyl auristatin E conjugate thereof” (Zhejiang University, priority 2012, dated 2017).

System: HEK293 cells
Assay: In vitro killing/toxicity (CCK-8) on normal HEK293 cells
Type: cell-based
Details: 32-1000 ng/mL, 96 hours
Source text: 4 types of cells were selected to measure in vitro anti-tumor activity of the rTRAIL mutant and the MMAE conjugate: TRAIL sensitive type (NCI-H460), TRAIL insensitive type (Hela), TRAIL resistant type (MCF-7) and normal cells (HEK293). All of these 4 types of cells had TRAIL death receptor on their surfaces.
Hereinafter, TRAIL sensitive type NCI-H460 cell was taken as an example to give detailed description of the test procedure, including the following steps:
(1) Digesting the NCI-H460 cells into individual cells, followed by diluting to 1×10^4 cells/mL, spreading the cells on 96-well plate (100 μL for each well), and culturing the cells for 24 hours under normal condition.
(2) Diluting N109C, N109C-vcMMAE and S96C-vcMMAE with culture medium respectively, and adding them into the cell plate with final concentrations of 32, 63, 125, 250, 500, 1000 ng/mL for serving as the test groups, while using standard TRAIL (114-281) as the positive control group, using the buffer (used for dissolving the test sample, diluted with the culture medium in a same manner) as the negative control group, and using the culture medium (without adding any solution) as the blank control group. All the control groups and test groups were tested in triplicate. […]

## TRAIL (114-281): standard TRAIL (114-281) used as the positive control group
  toxicity to normal cells: considerably low toxicity
